For the assay, the target named is Gal4p BD fused with murine p53 (pGBKT7-53) (murine). Briefly: two-hybrid.

As to “Gal4 AD fused with the SV40 large T-antigen (pGADT7-T) (natural protein)”, the mean GFP fluorescence at 72 hrs was found to be 156, the mean GFP fluorescence at 96 hrs came to 116, the percent GFP positive cells was 69.9% and the percent GFP positive cells at 30-48 hrs was 3 to 5%. The percent GFP positive cells at 72 hrs is 23.8% and the percent GFP positive cells at 96 hrs was found to be 23.5%.
